For this assay, the target named is EcbAgaN (Escherichia coli long-B pAgo-associated nuclease), N-terminal 6xHis tag (Escherichia coli). Kind of assay: SEC-MALS; EcbAgaN, already purified by SEC, loaded onto Superdex 200 10/300 GL in 20 mM Tris-HCl pH 7.5, 250 mM NaCl, 0.5 mL/min; BSA monomer as standard.

“EcbAgaN (Escherichia coli long-B pAgo-associated nuclease), N-terminal 6xHis tag (enzyme)” had a stoichiometry N of 2.
